B1: OTU domain-containing protein 3 (Homo sapiens), Q5T2D3 (parent)
chain: MSRKQAAKSRPGSGSRKAEAERKRDERAARRALAKERRNRPESGGGGGCEEEFVSFANQLQALGLKLREVPGDGNCLFRALGDQLEGHSRNHLKHRQETVDYMIKQREDFEPFVEDDIPFEKHVASLAKPGTFAGNDAIVAFARNHQLNVVIHQLNAPLWQIRGTEKSSVRELHIAYRYGEHYDSVRRINDNSEAPAHLQTDFQMLHQDESNKREKIKTKGMDSEDDLRDEVEDAVQKVCNATGCSDFNLIVQNLEAENYNIESAIIAVLRMNQGKRNNAEENLEPSGRVLKQCGPLWEEGGSGARIFGNQGLNEGRTENNKAQASPSEENKANKNQLAKVTNKQRREQQWMEKKKRQEERHRHKALESRGSHRDNNRSEAEANTQVTLVKTFAALNI
partner: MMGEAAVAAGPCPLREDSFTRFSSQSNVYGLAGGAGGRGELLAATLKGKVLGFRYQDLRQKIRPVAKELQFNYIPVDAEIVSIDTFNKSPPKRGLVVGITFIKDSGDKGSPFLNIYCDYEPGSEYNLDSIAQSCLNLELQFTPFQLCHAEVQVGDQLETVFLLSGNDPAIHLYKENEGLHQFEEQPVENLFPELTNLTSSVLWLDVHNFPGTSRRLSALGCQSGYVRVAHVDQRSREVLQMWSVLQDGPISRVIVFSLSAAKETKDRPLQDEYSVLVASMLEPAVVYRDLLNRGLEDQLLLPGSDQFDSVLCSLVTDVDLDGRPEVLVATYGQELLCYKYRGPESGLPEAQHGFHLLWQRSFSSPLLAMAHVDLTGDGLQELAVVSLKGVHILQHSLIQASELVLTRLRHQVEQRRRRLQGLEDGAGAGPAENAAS

The values that follow come from IntAct's records for PubMed 38288086.

In the experiment the parent is B1. As to conditions: with kptn_human KPTN.
As to C76A, the “effect of a mutation on the interaction” value is “with no effect”.
